Patent US20240400689A1 (ANTENGENE BIOLOGICS, published 2024)
Read-outs that look alike come from different tables or passages of the source.

How the values were obtained:
human CD276 protein [1] = biological target: T1, human CD276 protein (human, UniProt Q5ZPR3 29-534); test: FACS on SKOV3 cells
T1 construct: whole, on cells; for SKOV3 and the other cancer lines the protein is the cells' own; also called B7-H3; B7H3
T1 sequence (looked up): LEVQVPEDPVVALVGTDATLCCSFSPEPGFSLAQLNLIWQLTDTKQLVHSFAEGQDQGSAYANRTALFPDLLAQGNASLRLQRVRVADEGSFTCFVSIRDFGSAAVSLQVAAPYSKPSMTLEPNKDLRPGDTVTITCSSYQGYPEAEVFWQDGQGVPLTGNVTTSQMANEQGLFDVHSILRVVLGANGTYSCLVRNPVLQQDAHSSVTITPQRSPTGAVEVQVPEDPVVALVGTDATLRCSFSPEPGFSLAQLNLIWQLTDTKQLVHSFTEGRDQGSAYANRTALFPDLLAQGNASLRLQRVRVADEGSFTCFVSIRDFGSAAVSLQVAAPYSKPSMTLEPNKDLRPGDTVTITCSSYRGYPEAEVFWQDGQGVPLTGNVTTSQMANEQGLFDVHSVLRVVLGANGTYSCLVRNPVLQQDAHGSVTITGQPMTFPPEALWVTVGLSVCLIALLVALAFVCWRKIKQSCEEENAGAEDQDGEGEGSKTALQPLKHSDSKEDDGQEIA
Excerpt: Sequences of 31 mouse antibodies from Table 5 were selected to generate and produce human IgG1 chimeric antibodies. The binding affinity of these antibodies and bench mark antibody, Enoblituzumab (see U.S. Pat. No. 8,802,091, MGA271, specifically with a construct designated as hBRCA84D-2) and MGC018 (an antibody-drug-conjugate, in which the mAb MGA017 (human IgG1) is conjugated via a cleavable linker to the prodrug seco-DUocarmycin hydroxyBenzamide Azaindole (DUBA), an alkylating agent that can damage DNA in both dividing and non-dividing cells, thereby causing cell death) with human patient derived ovarian cancer cell line, SKOV3, was determined by FACS analysis.
1. Digested cells using Trypsin (1×); Centrifuged the harvested cells at 300 g for 3 min and discarding the supernatant. […] 2. Washed the cells 2 times with FACS buffer by centrifuging at 300 g for 3 min and discarding the supernatant. [0445] 3. […] Kept the cells in dark for FACS analysis.

human CD276 protein [2] = biological target: T1, human CD276 protein; test: cell-based or functional assay
human CD276 protein [3] = biological target: T1, human CD276 protein; test: cell-based or functional assay; remark: listed apart in the source
human CD276 protein [4] = biological target: T1, human CD276 protein; test: cell-based or functional assay; remark: listed apart in the source
[5] = biological target: T2, HUMAN B7H3 (Biacore analyte) (human, UniProt Q5ZPR3 29-461, limits assumed); test: SPR, Biacore 8K, antibody captured, B7H3 as analyte, 1:1 binding
T2 construct: also called hB7H3
T2 sequence (looked up): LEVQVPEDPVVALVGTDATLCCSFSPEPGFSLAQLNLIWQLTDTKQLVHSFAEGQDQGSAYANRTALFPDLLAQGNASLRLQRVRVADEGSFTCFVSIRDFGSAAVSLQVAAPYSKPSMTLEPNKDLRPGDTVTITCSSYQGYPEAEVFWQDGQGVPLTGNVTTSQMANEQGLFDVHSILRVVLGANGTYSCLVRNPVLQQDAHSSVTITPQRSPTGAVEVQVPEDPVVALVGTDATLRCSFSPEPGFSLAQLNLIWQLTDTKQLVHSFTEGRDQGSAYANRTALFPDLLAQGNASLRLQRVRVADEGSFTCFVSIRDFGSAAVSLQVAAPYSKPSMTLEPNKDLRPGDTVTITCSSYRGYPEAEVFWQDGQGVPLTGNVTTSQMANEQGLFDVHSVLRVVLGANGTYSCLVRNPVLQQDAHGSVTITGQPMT

[6] = biological target: T2, HUMAN B7H3 (Biacore analyte); test: as above; remark: listed apart in the source

| Binder | EC50 (human CD276 protein [1]) | MFI (Max) (human CD276 protein [1]) | EC50 of antibody induced ADCC effect on SKOV3 (human CD276 protein [2]) | EC50 of antibody induced CDC effect (human CD276 protein [3]) | Top cytotoxicity (%), CDC (human CD276 protein [3]) | IC50 of indirect ADC cytotoxicity on SKOV3 (human CD276 protein [4]) | Kd [5] | koff [5] | kon [5] | Kd [6] | koff [6] | kon [6] |
| --- | --- | --- | --- | --- | --- | --- | --- | --- | --- | --- | --- | --- |
| 20-A2-D10-G8 (human IgG1 chimeric antibody) (antibody, V domains shown, human IgG1 chimeric antibody of the mouse clone) VH: QVQLQQSGPELVRPGVSVKISCKGSGYTFTDYTMHWVKESHAQSLEWIGVISTYYGNTNYNQNFKGKATLTVDKSSSTAYMELAGLTSEDSAIYYCARASYGSGYGPYYWYFDVWGAGTTVTVSS VL: DIQMTQSPASLFASVGETVTITCRASEKIYSYLAWYFQKQGKSPQFLVYNANALAEGVPSRFSGSGSGTQFSLKIKSLQPEDFGTYYCQHHYGSPVTFGAGSKLELK | 0.791 µg/mL | 3110 | 0.263 µg/mL | 1920 pM | 85.1% | 7 pM | 555 pM | 0.000282 s⁻¹ | 508000 M⁻¹ s⁻¹ |  |  |  |
| 10-B9-D10-A12 (human IgG1 chimeric antibody) (antibody, V domains shown, human IgG1 chimeric antibody of the mouse clone) VH: EVQLQESGPELVRPGVSVKISCKGSGYTFTDYTMHWVKLSHAKSLEWIGVISTYYGNTNYNQKFKGKATLTVDKSSSTAYMELARLTSEDSAIYYCARASYGSGYGPYYWYFDVWGAGTTVTVSS VL: DIQMTQSPASLFASVGETVTITCRASEKIYSYLAWYFQKQGKSPQFLVYNANALAEGVPSRFSGSGSGTQFSLKINSLQPEDFGTYYCQHHYGTPVTFGAGSKLELK | 2.08 µg/mL | 3880 | 0.259 µg/mL |  |  | 21 pM | 752 pM | 0.000282 s⁻¹ | 375000 M⁻¹ s⁻¹ |  |  |  |
| 20-C5-D7-D3 (human IgG1 chimeric antibody) (antibody, V domains shown, human IgG1 chimeric antibody of the mouse clone) VH: EVQLVESGGDLVKPGGSLKLSCAASGFTFRSYGMSWVRQTPDKRLEWVATISGGGNYTYYPDSVKGRFTISRDNAKNTLYLQMSSLKSEDTAMYYCARHEGLPLDYWGQGTTLTVSS VL: DIQMTQSPASLSASVGETVTITCRASENIYSYLAWYQQKQGKSPQLLVYNAKTLAEGVPSRFSGSGSGTQFSLKINSLQPEDFGNFYCQHHYGTPTWTFGGGTKLEIK | 0.941 µg/mL | 2310 | 0.069 µg/mL |  |  | 7 pM | 644 pM | 0.000416 s⁻¹ | 645000 M⁻¹ s⁻¹ |  |  |  |
| 13-E4-G9-A4 (human IgG1 chimeric antibody) (antibody, V domains shown, human IgG1 chimeric antibody of the mouse clone) VH: EVMLVESGGGLVKPGGSLKFSCAASGFTFITYAMSWVRQTPEKRLEWVATISGGGIDTYYPDSVKGRFTISRDNAKNTLYLQVNSLRSEDTAMYYCTRQGSQGWGAMDYWGQGTSVTVSS VL: QIVLTQSPPIMSASPGERVTMTCRASSRVSFMHWYQQKSGTSPRRWIYETSKLASGVPDRFSGSVSGTSYSLTISSMEAEDAATYYCQQWSSNPLTFGAGTKLELK | 1.77 µg/mL | 3080 | 0.876 µg/mL |  |  | 21 pM |  |  |  |  |  |  |
| 8-C3-E3-F3 (human IgG1 chimeric antibody) (antibody, V domains shown, human IgG1 chimeric antibody of the mouse clone) VH: EVQLVESGGGLVQPGGSLKLSCAASGFTFSNYGLSWVRLTPDKRLEVVATIGSYGGNTYYPDSVKGRFTISRDNAKNTLYLQMSSLKSEDTAIYYCARDIYYGNSEAWFAYWGQGTLVTVSA VL: DIVMTQAAFSNPVTLGTSASISCRSSKSLLHSNGITYLYWYLQKPGQSPQLLIYQMSNLASGVPDRFSSSGSETDFTLRISRVEAEDVGVYYCAQNLELPWTFGGGTKLEIK | 0.643 µg/mL | 2880 | 0.111 µg/mL |  |  | 12 pM | 444 pM | 0.00044 s⁻¹ | 990000 M⁻¹ s⁻¹ |  |  |  |
| MGC018 (antibody, V domains shown) VH: EVQLVESGGGLVKPGGSLRLSCAASGFTFSSYGMSWVRQAPGKGLEWVATINSGGSNTYYPDSLKGRFTISRDNAKNSLYLQMNSLRAEDTAVYYCARHDGGAMDYWGQGTTVTVSS VL: DIQMTQSPSSLSASVGDRVTITCRASESIYSYLAWYQQKPGKAPKLLVYNTKTLPEGVPSRFSGSGSGTDFTLTISSLQPEDFATYYCQHHYGTPPWTFGQGTRLEIKR | 0.385 µg/mL | 2540 |  | 1670 pM | 93.3% | 13 pM | 459 pM | 0.000408 s⁻¹ | 889000 M⁻¹ s⁻¹ |  |  |  |
| 22-E11-C3-F2 (human IgG1 chimeric antibody) (antibody, V domains shown, human IgG1 chimeric antibody of the mouse clone) VH: QIQLVQSGPELKRPGETVKISCKASGYSFTNYGMNWVKQAPGKGLKWMGWINPYTGEPTYADDFKGRFAMSLETSASAAYLQINNLKNEDMATYFCGRDDGYHYTMNYWGQGTSVTVSS VL: DVVMTQPPLSLPVSLGDQASISCRSSQSLIHSNGDTYLHWYLQKPGQSPKLLIYKVSIRFSGVPDRFSGSGSGTDFTLKISRVEAEDLGVYFCSQSTYVPWTFGGGTKLEIK | 0.523 µg/mL | 5540 | 0.0179 µg/mL |  |  | 16 pM |  |  |  |  |  |  |
| 10-G6-C4-B2_hVH2-VL1_PTM (antibody, V domains shown, humanized, PTM-optimized antibody from 10-G6-C4-B2) VH: EVQLVESGGGLVQPGGSLRLSCATSGFTLSDYYMSWVRQAPGKGLEWVSFMRNKANAYTTEYSASVRGRFTISRDTSKSTIYLQMNSLRAEDTAVYYCVRDREGRPFAYWGQGTLVTVSS VL: DIVMTQSPDSLAVSLGERATINCKSSQSLLNAINQKNFLTWYQQKPGQPPKLLIYWASTRESGVPDRFSGSGSGTDFTLTISSLQAEDLAVYYCQNDYTYPLTFGQGTKLEIK |  |  |  |  |  |  |  |  |  | 851 pM | 7.26e-05 s⁻¹ | 85300 M⁻¹ s⁻¹ |
| 10-G6-C4-B2_hVH4-VL1_PTM (antibody, V domains shown, humanized, PTM-optimized antibody from 10-G6-C4-B2) VH: EVQLVESGGGLIQPGGSLRLSCATSGFTLSDYYMSWVRQPPGKGLEWVSFMRNKANAYTTEYSASVRGRFTISRDTSKSTIYLQMNSLRAEDTAVYYCVRDREGRPFAYWGQGTLVTVSS VL: DIVMTQSPDSLAVSLGERATINCKSSQSLLNAINQKNFLTWYQQKPGQPPKLLIYWASTRESGVPDRFSGSGSGTDFTLTISSLQAEDLAVYYCQNDYTYPLTFGQGTKLEIK |  |  |  |  |  |  |  |  |  | 1730 pM | 0.000155 s⁻¹ | 89600 M⁻¹ s⁻¹ |
| 10-G6-C4-B2_hVH5-VL1_PTM (antibody, V domains shown, humanized, PTM-optimized antibody from 10-G6-C4-B2) VH: EVQLVESGGGLVQPGRSLRLSCTTSGFTLSDYYMSWVRQAPGKGLEWVGFMRNKANAYTTEYSASVRGRFTISRDTSKSIIYLQMNSLKTEDTAVYYCVRDREGRPFAYWGQGTLVTVSS VL: DIVMTQSPDSLAVSLGERATINCKSSQSLLNAINQKNFLTWYQQKPGQPPKLLIYWASTRESGVPDRFSGSGSGTDFTLTISSLQAEDLAVYYCQNDYTYPLTFGQGTKLEIK |  |  |  |  |  |  |  |  |  | 92.9 pM | 1.37e-05 s⁻¹ | 147000 M⁻¹ s⁻¹ |
| 10-G6-C4-B2_hVH3-VL3_PTM (antibody, V domains shown, humanized, PTM-optimized antibody from 10-G6-C4-B2) VH: EVQLVESGGGLVQPGGSLRLSCATSGFTLSDYYMSWVRQAPGKGLEWVGFMRNKANAYTTEYSASVRGRFTISRDTSKSSIYLQMNSLKTEDTAVYYCVRDREGRPFAYWGQGTLVTVSS VL: DIQMTQSPSSLSASVGDRVTITCKSSQSLLNAINQKNFLTWYQQKPGKAPKLLIYWASTRESGVPSRFSGSGSGTDFTLTISSLQPEDLATYYCQNDYTYPLTFGQGTKLEIK |  |  |  |  |  |  |  |  |  | 8.7 pM | 1.02e-06 s⁻¹ | 118000 M⁻¹ s⁻¹ |
| 10-G6-C4-B2_hVH5-VL3_PTM (antibody, V domains shown, humanized, PTM-optimized antibody from 10-G6-C4-B2) VH: EVQLVESGGGLVQPGRSLRLSCTTSGFTLSDYYMSWVRQAPGKGLEWVGFMRNKANAYTTEYSASVRGRFTISRDTSKSIIYLQMNSLKTEDTAVYYCVRDREGRPFAYWGQGTLVTVSS VL: DIQMTQSPSSLSASVGDRVTITCKSSQSLLNAINQKNFLTWYQQKPGKAPKLLIYWASTRESGVPSRFSGSGSGTDFTLTISSLQPEDLATYYCQNDYTYPLTFGQGTKLEIK |  |  |  |  |  |  |  |  |  | 6.92 pM | 1.01e-06 s⁻¹ | 146000 M⁻¹ s⁻¹ |
| 10-G6-C4-B2_hVH4-VL2_PTM (antibody, V domains shown, humanized, PTM-optimized antibody from 10-G6-C4-B2) VH: EVQLVESGGGLIQPGGSLRLSCATSGFTLSDYYMSWVRQPPGKGLEWVSFMRNKANAYTTEYSASVRGRFTISRDTSKSTIYLQMNSLRAEDTAVYYCVRDREGRPFAYWGQGTLVTVSS VL: DIVMTQSPLSLPVTPGEPASISCKSSQSLLNAINQKNFLTWYLQKPGQSPQLLIYWASTRESGVPDRFSGSGSGTDFTLKISRVEAEDLGVYYCQNDYTYPLTFGQGTKLEIK |  |  |  |  |  |  |  |  |  | 1350 pM | 7.12e-05 s⁻¹ | 52700 M⁻¹ s⁻¹ |
